Measured values as given in paper PMC12382473, “Retinoid X receptor γ interacts with peroxisome proliferator-activated receptor-γ to promote browning during adipose tissue differentiation” (Adipocyte, 2025).

Biological target: T1, Flag-PPARγ, transfected in HEK293 cells (UniProt P37231 1-505)
T1 sequence (looked up): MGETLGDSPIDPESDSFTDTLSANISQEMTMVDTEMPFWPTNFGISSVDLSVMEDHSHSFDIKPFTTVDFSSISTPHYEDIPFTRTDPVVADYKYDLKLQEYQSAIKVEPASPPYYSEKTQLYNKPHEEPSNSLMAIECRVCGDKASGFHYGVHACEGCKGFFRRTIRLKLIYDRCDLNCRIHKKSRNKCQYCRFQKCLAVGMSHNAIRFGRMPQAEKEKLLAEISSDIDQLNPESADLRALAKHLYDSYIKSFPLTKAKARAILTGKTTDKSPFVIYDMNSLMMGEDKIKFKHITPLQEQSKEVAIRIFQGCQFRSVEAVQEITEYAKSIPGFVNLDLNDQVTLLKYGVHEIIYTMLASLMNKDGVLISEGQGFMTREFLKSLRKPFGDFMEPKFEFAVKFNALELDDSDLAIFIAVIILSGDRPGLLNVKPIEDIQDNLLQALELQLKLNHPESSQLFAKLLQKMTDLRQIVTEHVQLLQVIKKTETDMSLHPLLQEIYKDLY
Test: cell-based or functional assay

B1: Myc-RXRγ (retinoid X receptor γ), transfected in HEK293 cells (natural protein, UniProt P48443 1-463, looked up)
chain: MYGNYSHFMKFPAGYGGSPGHTGSTSMSPSAALSTGKPMDSHPSYTDTPVSAPRTLSAVGTPLNALGSPYRVITSAMGPPSGALAAPPGINLVAPPSSQLNVVNSVSSSEDIKPLPGLPGIGNMNYPSTSPGSLVKHICAICGDRSSGKHYGVYSCEGCKGFFKRTIRKDLIYTCRDNKDCLIDKRQRNRCQYCRYQKCLVMGMKREAVQEERQRSRERAESEAECATSGHEDMPVERILEAELAVEPKTESYGDMNMENSTNDPVTNICHAADKQLFTLVEWAKRIPHFSDLTLEDQVILLRAGWNELLIASFSHRSVSVQDGILLATGLHVHRSSAHSAGVGSIFDRVLTELVSKMKDMQMDKSELGCLRAIVLFNPDAKGLSNPSEVETLREKVYATLEAYTKQKYPEQPGRFAKLLLRLPALRSIGLKCLEHLFFFKLIGDTPIDTFLMEMLETPLQIT
B1 was tested. Which “luciferase activity of a PPRE reporter in HEK293 cells, RXRγ co-expressed with PPARγ (PPARγ alone 1.6-fold; RXRγ alone no increase)” value did it give?
The value was 2.1 fold.

And the “luciferase activity of a UCP1 promoter reporter in HEK293 cells, RXRγ co-expressed with PPARγ (PPARγ alone 1.5-fold; RXRγ alone no increase)” value?
Its value is 3.4 fold.
